Experimental data taken from patent US20050207995A1.

Experiments:
[1] = target: human salivary α-amylase (Type IX A, Sigma Chemical Co.) (human); experiment: ELISA: amylase (10.0 µg/ml) coated, 65 kDa protein added, detected with rat anti-65 kDa serum
[2] = target: human whole saliva (human); experiment: ELISA: 1:2 dilution of whole saliva coated, 65 kDa protein added, detected with rat anti-65 kDa serum

Chain of human salivary α-amylase (Type IX A, Sigma Chemical Co.) (human) (P0DUB6 16-511): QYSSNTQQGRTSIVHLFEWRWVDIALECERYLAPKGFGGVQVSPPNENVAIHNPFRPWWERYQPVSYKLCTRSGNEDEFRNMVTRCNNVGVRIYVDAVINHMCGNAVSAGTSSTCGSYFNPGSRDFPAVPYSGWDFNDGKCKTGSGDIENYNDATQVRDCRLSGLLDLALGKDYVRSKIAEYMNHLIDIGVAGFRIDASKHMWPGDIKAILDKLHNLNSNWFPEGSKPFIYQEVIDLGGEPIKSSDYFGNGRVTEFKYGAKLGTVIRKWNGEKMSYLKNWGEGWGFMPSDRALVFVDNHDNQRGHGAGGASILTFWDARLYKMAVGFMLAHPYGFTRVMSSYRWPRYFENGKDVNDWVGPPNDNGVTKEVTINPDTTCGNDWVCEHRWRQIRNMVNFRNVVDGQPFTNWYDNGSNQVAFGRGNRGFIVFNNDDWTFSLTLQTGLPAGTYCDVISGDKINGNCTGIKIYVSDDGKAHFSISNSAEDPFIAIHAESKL

purified 65 kDa fimbrial protein of S. mutans A32-2 (serotype c) (enzyme)
O.D. (ELISA absorbance at 490 nm) [1]: 0.25 O.D. | O.D. (ELISA absorbance at 490 nm) [2]: 0.26 O.D.
